This is an account of results in the supplement of paper PMC9112550, “Optimization of the antimicrobial peptide Bac7 by deep mutational scanning” (BMC Biology, 2022).

The data set relates to Escherichia coli TOP10. In words: shrunken log2 fold change of peptide-encoding DNA abundance (4.5 h post-induction vs induction); higher = less antimicrobial activity (less host growth inhibition). To be noted: time post-induction: 4.5 h; library: site-saturation at positions 5, 18, 19, 20.
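Further: peptides expressed intracellularly from a pBAD plasmid library in pooled LB shake-flask culture, induced with 0.3% L-arabinose, DNA abundance read by NGS, three biological replicates, DESeq2 with apeglm shrinkage.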

Turning to RRIRYRPPRLPRPRPRPVFWPRP, the “shrunken log2 fold change” value was determined as 0.11.

For RRIRNRPPRLPRPRPRPAMAPRP, the “shrunken log2 fold change” value was found to be 0.0129.

As to RRIRHRPPRLPRPRPRPEPLPRP, the “shrunken log2 fold change” value worked out at 0.0544.

Consider RRIRCRPPRLPRPRPRPAHQPRP, for which the “shrunken log2 fold change” value amounted to 0.133.

For RRIRQRPPRLPRPRPRPHLWPRP, the “shrunken log2 fold change” value turned out to be 0.0824.

For the sequence RRIRKRPPRLPRPRPRPGLHPRP, the “shrunken log2 fold change” value is 0.0334.

Take RRIRLRPPRLPRPRPRPDRLPRP: the “shrunken log2 fold change” value was -0.0156.

For RRIRARPPRLPRPRPRPHDGPRP, the “shrunken log2 fold change” value worked out at 0.373.

On to RRIRRRPPRLPRPRPRPQNYPRP, for which the “shrunken log2 fold change” value is -0.304.

In the case of RRIRNRPPRLPRPRPRPMFRPRP, the “shrunken log2 fold change” value was -0.0515.

As for RRIRFRPPRLPRPRPRPKVCPRP, the “shrunken log2 fold change” value came to 0.0321.

For the sequence RRIRFRPPRLPRPRPRPCISPRP, the “shrunken log2 fold change” value is -0.068.

As to RRIRHRPPRLPRPRPRPNHRPRP, the “shrunken log2 fold change” value is -0.0366.

As for RRIRFRPPRLPRPRPRPLDKPRP, the “shrunken log2 fold change” value is -0.103.

Consider RRIRARPPRLPRPRPRPFICPRP, for which the “shrunken log2 fold change” value was -0.1.

In the case of RRIRGRPPRLPRPRPRPYWWPRP, the “shrunken log2 fold change” value was -0.0995.

With RRIRQRPPRLPRPRPRPEPFPRP, the “shrunken log2 fold change” value is -0.00936.

With RRIRQRPPRLPRPRPRPHVMPRP, the “shrunken log2 fold change” value was -0.444.

On to RRIRDRPPRLPRPRPRPCEDPRP, for which the “shrunken log2 fold change” value was -0.0105.

As for RRIRKRPPRLPRPRPRPQDKPRP, the “shrunken log2 fold change” value was -0.182.

For the sequence RRIRSRPPRLPRPRPRPMNPPRP, the “shrunken log2 fold change” value is -0.0648.

For the sequence RRIRPRPPRLPRPRPRPEYTPRP, the “shrunken log2 fold change” value is -0.0863.

For the sequence RRIRCRPPRLPRPRPRPHGTPRP, the “shrunken log2 fold change” value is -0.0488.

Consider RRIRTRPPRLPRPRPRPRAAPRP, for which the “shrunken log2 fold change” value stood at 0.385.

Consider RRIRPRPPRLPRPRPRPSLGPRP, for which the “shrunken log2 fold change” value amounted to 0.342.

As for RRIRHRPPRLPRPRPRPRDKPRP, the “shrunken log2 fold change” value was -0.132.

Consider RRIRHRPPRLPRPRPRPQNHPRP, for which the “shrunken log2 fold change” value is -0.922.

Turning to RRIRDRPPRLPRPRPRPNNIPRP, the “shrunken log2 fold change” value is -0.558.

As to RRIRMRPPRLPRPRPRPDPRPRP, the “shrunken log2 fold change” value is 0.104.

For RRIRSRPPRLPRPRPRPALRPRP, the “shrunken log2 fold change” value was 0.169.

Consider RRIRRRPPRLPRPRPRPLWDPRP, for which the “shrunken log2 fold change” value was 0.56.

In the case of RRIRNRPPRLPRPRPRPGRDPRP, the “shrunken log2 fold change” value is 0.366.

With RRIRTRPPRLPRPRPRPCTEPRP, the “shrunken log2 fold change” value was -0.237.

With RRIRFRPPRLPRPRPRPMKCPRP, the “shrunken log2 fold change” value was -0.695.

RRIRLRPPRLPRPRPRPLIFPRP: the “shrunken log2 fold change” value was -0.656.

Consider RRIRGRPPRLPRPRPRPSWIPRP, for which the “shrunken log2 fold change” value was -0.0436.

With RRIRIRPPRLPRPRPRPVCFPRP, the “shrunken log2 fold change” value is -0.256.

Take RRIRERPPRLPRPRPRPFMPPRP: the “shrunken log2 fold change” value was -0.777.

For RRIRERPPRLPRPRPRPIIWPRP, the “shrunken log2 fold change” value was -0.204.

In the case of RRIRTRPPRLPRPRPRPAYAPRP, the “shrunken log2 fold change” value was found to be 0.0376.

Regarding RRIRGRPPRLPRPRPRPYIVPRP, the “shrunken log2 fold change” value was determined as 0.0237.

In the case of RRIRSRPPRLPRPRPRPYKMPRP, the “shrunken log2 fold change” value was -0.425.

Take RRIRYRPPRLPRPRPRPLKFPRP: the “shrunken log2 fold change” value was -0.42.

With RRIRCRPPRLPRPRPRPRHMPRP, the “shrunken log2 fold change” value was -0.185.

As to RRIRMRPPRLPRPRPRPSIEPRP, the “shrunken log2 fold change” value was determined as 0.0914.

Regarding RRIRHRPPRLPRPRPRPHTSPRP, the “shrunken log2 fold change” value was -0.0988.

Turning to RRIRVRPPRLPRPRPRPYKRPRP, the “shrunken log2 fold change” value was -0.0182.

Regarding RRIRRRPPRLPRPRPRPEMKPRP, the “shrunken log2 fold change” value was 0.215.

With RRIRCRPPRLPRPRPRPRFWPRP, the “shrunken log2 fold change” value amounted to 0.167.

As to RRIRARPPRLPRPRPRPRPIPRP, the “shrunken log2 fold change” value worked out at 0.719.

Regarding RRIRYRPPRLPRPRPRPSFSPRP, the “shrunken log2 fold change” value is -0.626.

In the case of RRIRGRPPRLPRPRPRPLWFPRP, the “shrunken log2 fold change” value was determined as 0.183.

Consider RRIRARPPRLPRPRPRPFNLPRP, for which the “shrunken log2 fold change” value was -0.173.

Turning to RRIRIRPPRLPRPRPRPADFPRP, the “shrunken log2 fold change” value was -0.162.

Regarding RRIRIRPPRLPRPRPRPYKLPRP, the “shrunken log2 fold change” value was -1.04.

RRIRFRPPRLPRPRPRPYDNPRP: the “shrunken log2 fold change” value was -0.775.

For RRIRARPPRLPRPRPRPEHQPRP, the “shrunken log2 fold change” value was 0.399.

In the case of RRIRKRPPRLPRPRPRPSKQPRP, the “shrunken log2 fold change” value was determined as 0.292.

For RRIRIRPPRLPRPRPRPGSFPRP, the “shrunken log2 fold change” value is -0.0206.

For RRIRDRPPRLPRPRPRPADTPRP, the “shrunken log2 fold change” value is -0.379.

Consider RRIRHRPPRLPRPRPRPRQWPRP, for which the “shrunken log2 fold change” value amounted to 0.408.

As to RRIRLRPPRLPRPRPRPGFIPRP, the “shrunken log2 fold change” value turned out to be 0.452.

Regarding RRIRDRPPRLPRPRPRPEHWPRP, the “shrunken log2 fold change” value was found to be 0.598.

Take RRIRTRPPRLPRPRPRPVLKPRP: the “shrunken log2 fold change” value worked out at 0.209.

Take RRIRYRPPRLPRPRPRPQEFPRP: the “shrunken log2 fold change” value was -0.00973.

RRIRVRPPRLPRPRPRPTSIPRP: the “shrunken log2 fold change” value is -0.201.

Turning to RRIRFRPPRLPRPRPRPSFLPRP, the “shrunken log2 fold change” value was -0.572.

Take RRIRDRPPRLPRPRPRPHVEPRP: the “shrunken log2 fold change” value was -0.109.

As to RRIRHRPPRLPRPRPRPQKTPRP, the “shrunken log2 fold change” value is 0.00246.

With RRIRARPPRLPRPRPRPWEGPRP, the “shrunken log2 fold change” value came out at 0.209.

RRIRNRPPRLPRPRPRPFYFPRP: the “shrunken log2 fold change” value is -0.718.

For RRIRNRPPRLPRPRPRPCAKPRP, the “shrunken log2 fold change” value was -0.0333.

With RRIRVRPPRLPRPRPRPGWEPRP, the “shrunken log2 fold change” value was determined as 0.123.

In the case of RRIRARPPRLPRPRPRPTGEPRP, the “shrunken log2 fold change” value is 0.0455.

For the sequence RRIRRRPPRLPRPRPRPTRLPRP, the “shrunken log2 fold change” value was 0.612.

As for RRIRSRPPRLPRPRPRPWEFPRP, the “shrunken log2 fold change” value turned out to be 0.236.

Regarding RRIRDRPPRLPRPRPRPWYPPRP, the “shrunken log2 fold change” value is -0.0798.

Take RRIRWRPPRLPRPRPRPISVPRP: the “shrunken log2 fold change” value was -0.186.

Turning to RRIRARPPRLPRPRPRPSYAPRP, the “shrunken log2 fold change” value is -0.165.

In the case of RRIRVRPPRLPRPRPRPWPQPRP, the “shrunken log2 fold change” value worked out at 0.104.

With RRIRQRPPRLPRPRPRPPCPPRP, the “shrunken log2 fold change” value worked out at 0.085.

For the sequence RRIRWRPPRLPRPRPRPHDEPRP, the “shrunken log2 fold change” value is -0.2.

Turning to RRIRRRPPRLPRPRPRPHYYPRP, the “shrunken log2 fold change” value was -0.0297.

Take RRIRVRPPRLPRPRPRPCHEPRP: the “shrunken log2 fold change” value is -0.378.

RRIRARPPRLPRPRPRPFFAPRP: the “shrunken log2 fold change” value is 0.67.

Consider RRIRERPPRLPRPRPRPKHEPRP, for which the “shrunken log2 fold change” value is -0.205.

For the sequence RRIRMRPPRLPRPRPRPLYCPRP, the “shrunken log2 fold change” value was -0.396.

On to RRIRMRPPRLPRPRPRPFGQPRP, for which the “shrunken log2 fold change” value turned out to be 0.0853.

In the case of RRIRARPPRLPRPRPRPQKSPRP, the “shrunken log2 fold change” value was found to be 0.0945.

Turning to RRIRCRPPRLPRPRPRPFFDPRP, the “shrunken log2 fold change” value was -0.199.

Consider RRIRRRPPRLPRPRPRPGRYPRP, for which the “shrunken log2 fold change” value came to 0.218.

On to RRIRIRPPRLPRPRPRPGIWPRP, for which the “shrunken log2 fold change” value was -0.015.

Regarding RRIRRRPPRLPRPRPRPSIKPRP, the “shrunken log2 fold change” value was determined as 2.9.

With RRIRCRPPRLPRPRPRPLNAPRP, the “shrunken log2 fold change” value was -0.255.

As for RRIRYRPPRLPRPRPRPQMWPRP, the “shrunken log2 fold change” value is -0.213.

Turning to RRIRNRPPRLPRPRPRPQNWPRP, the “shrunken log2 fold change” value is -0.146.

On to RRIRCRPPRLPRPRPRPYWKPRP, for which the “shrunken log2 fold change” value was -0.737.

Regarding RRIRRRPPRLPRPRPRPNSMPRP, the “shrunken log2 fold change” value is -0.233.

As to RRIRFRPPRLPRPRPRPKEKPRP, the “shrunken log2 fold change” value was -0.0715.

With RRIRRRPPRLPRPRPRPHCLPRP, the “shrunken log2 fold change” value is -0.192.

Turning to RRIRKRPPRLPRPRPRPGESPRP, the “shrunken log2 fold change” value was 0.0841.

As to RRIRRRPPRLPRPRPRPISEPRP, the “shrunken log2 fold change” value came out at 0.00118.

RRIRLRPPRLPRPRPRPNSCPRP: the “shrunken log2 fold change” value is 0.00169.

In the case of RRIRGRPPRLPRPRPRPVQRPRP, the “shrunken log2 fold change” value was found to be 0.739.

Take RRIRNRPPRLPRPRPRPIRFPRP: the “shrunken log2 fold change” value is -0.0225.

With RRIRGRPPRLPRPRPRPDQWPRP, the “shrunken log2 fold change” value was determined as 0.665.

Turning to RRIRERPPRLPRPRPRPKYMPRP, the “shrunken log2 fold change” value was 0.822.

Regarding RRIRGRPPRLPRPRPRPPWLPRP, the “shrunken log2 fold change” value was 0.849.

As for RRIRSRPPRLPRPRPRPVGNPRP, the “shrunken log2 fold change” value was -0.0399.

RRIRHRPPRLPRPRPRPFQRPRP: the “shrunken log2 fold change” value was 0.0038.

On to RRIRARPPRLPRPRPRPNNAPRP, for which the “shrunken log2 fold change” value worked out at 0.00673.

Turning to RRIRERPPRLPRPRPRPWHIPRP, the “shrunken log2 fold change” value is -0.169.

Turning to RRIRFRPPRLPRPRPRPVPCPRP, the “shrunken log2 fold change” value was 0.0335.

As for RRIRHRPPRLPRPRPRPPNNPRP, the “shrunken log2 fold change” value was -0.58.

For RRIRIRPPRLPRPRPRPCSDPRP, the “shrunken log2 fold change” value was -0.0062.

In the case of RRIRVRPPRLPRPRPRPQDDPRP, the “shrunken log2 fold change” value is -0.006.

Consider RRIRNRPPRLPRPRPRPMKYPRP, for which the “shrunken log2 fold change” value is -0.164.

Consider RRIRVRPPRLPRPRPRPGWVPRP, for which the “shrunken log2 fold change” value came to 0.0954.

As for RRIRDRPPRLPRPRPRPCEMPRP, the “shrunken log2 fold change” value worked out at 0.63.

For RRIRLRPPRLPRPRPRPEVWPRP, the “shrunken log2 fold change” value worked out at 0.276.

For the sequence RRIRGRPPRLPRPRPRPIPYPRP, the “shrunken log2 fold change” value was -0.1.

RRIRYRPPRLPRPRPRPNLLPRP: the “shrunken log2 fold change” value was -0.213.

Consider RRIRIRPPRLPRPRPRPKANPRP, for which the “shrunken log2 fold change” value is -0.103.

As to RRIRLRPPRLPRPRPRPCDDPRP, the “shrunken log2 fold change” value is -0.189.

With RRIRSRPPRLPRPRPRPMFNPRP, the “shrunken log2 fold change” value was -0.258.
